doi:10.1101/2024.11.26.625568, “Structural and functional insights into activation and regulation of the dynein-dynactin-NuMA complex” (bioRxiv, 2024)

B1: NuMA C (domain or fragment, human, UniProt Q14980 1700-2115, looked up)
chain: FQVATDALKSREPQAKPQLDLSIDSLDLSCEEGTPLSITSKLPRTQPDGTSVPGEPASPISQRLPPKVESLESLYFTPIPARSQAPLESSLDSLGDVFLDSGRKTRSARRRTTQIINITMTKKLDVEEPDSANSSFYSTRSAPASQASLRATSSTQSLARLGSPDYGNSALLSLPGYRPTTRSSARRSQAGVSSGAPPGRNSFYMGTCQDEPEQLDDWNRIAELQQRNRVCPPHLKTCYPLESRPSLSLGTITDEEMKTGDPQETLRRASMQPIQIAEGTGITTRQQRKRVSLEPHQGPGTPESKKATSCFPRPMTPRDRHEGRKQSTTEAQKKAAPASTKQADRRQSMAFSILNTPKKLGNSLLRRGASKKALSKASPNTRSGTRRSPRIATTTASAATAAAIGATPRAKGKAKH
notes: NuMA, human, C-terminal region a.a; 1700-2115; also called NuMA C-terminus; NuMA C-mNG; source: SF9 insect cells (baculovirus), purified (IgG Sepharose, TEV elution, Superdex 200 SEC); not shown: His6, N-terminal, cleaved; ZZ, N-terminal, cleaved; MBP, N-terminal, cleaved; mNG, C-terminal, kept
B2: NuMA 1-1699 (domain or fragment, human, UniProt Q14980 1-1699, looked up)
chain: MTLHATRGAALLSWVNSLHVADPVEAVLQLQDCSIFIKIIDRIHGTEEGQQILKQPVSERLDFVCSFLQKNRKHPSSPECLVSAQKVLEGSELELAKMTMLLLYHSTMSSKSPRDWEQFEYKIQAELAVILKFVLDHEDGLNLNEDLENFLQKAPVPSTCSSTFPEELSPPSHQAKREIRFLELQKVASSSSGNNFLSGSPASPMGDILQTPQFQMRRLKKQLADERSNRDELELELAENRKLLTEKDAQIAMMQQRIDRLALLNEKQAASPLEPKELEELRDKNESLTMRLHETLKQCQDLKTEKSQMDRKINQLSEENGDLSFKLREFASHLQQLQDALNELTEEHSKATQEWLEKQAQLEKELSAALQDKKCLEEKNEILQGKLSQLEEHLSQLQDNPPQEKGEVLGDVLQLETLKQEAATLAANNTQLQARVEMLETERGQQEAKLLAERGHFEEEKQQLSSLITDLQSSISNLSQAKEELEQASQAHGARLTAQVASLTSELTTLNATIQQQDQELAGLKQQAKEKQAQLAQTLQQQEQASQGLRHQVEQLSSSLKQKEQQLKEVAEKQEATRQDHAQQLATAAEEREASLRERDAALKQLEALEKEKAAKLEILQQQLQVANEARDSAQTSVTQAQREKAELSRKVEELQACVETARQEQHEAQAQVAELELQLRSEQQKATEKERVAQEKDQLQEQLQALKESLKVTKGSLEEEKRRAADALEEQQRCISELKAETRSLVEQHKRERKELEEERAGRKGLEARLQQLGEAHQAETEVLRRELAEAMAAQHTAESECEQLVKEVAAWRERYEDSQQEEAQYGAMFQEQLMTLKEECEKARQELQEAKEKVAGIESHSELQISRQQNELAELHANLARALQQVQEKEVRAQKLADDLSTLQEKMAATSKEVARLETLVRKAGEQQETASRELVKEPARAGDRQPEWLEEQQGRQFCSTQAALQAMEREAEQMGNELERLRAALMESQGQQQEERGQQEREVARLTQERGRAQADLALEKAARAELEMRLQNALNEQRVEFATLQEALAHALTEKEGKDQELAKLRGLEAAQIKELEELRQTVKQLKEQLAKKEKEHASGSGAQSEAAGRTEPTGPKLEALRAEVSKLEQQCQKQQEQADSLERSLEAERASRAERDSALETLQGQLEEKAQELGHSQSALASAQRELAAFRTKVQDHSKAEDEWKAQVARGRQEAERKNSLISSLEEEVSILNRQVLEKEGESKELKRLVMAESEKSQKLEERLRLLQAETASNSARAAERSSALREEVQSLREEAEKQRVASENLRQELTSQAERAEELGQELKAWQEKFFQKEQALSTLQLEHTSTQALVSELLPAKHLCQQLQAEQAAAEKRHREELEQSKQAAGGLRAELLRAQRELGELIPLRQKVAEQERTAQQLRAEKASYAEQLSMLKKAHGLLAEENRGLGERANLGRQFLEVELDQAREKYVQELAAVRADAETRLAEVQREAQSTARELEVMTAKYEGAKVKVLEERQRFQEERQKLTAQVEQLEVFQREQTKQVEELSKKLADSDQASKVQQQKLKAVQAQGGESQQEAQRLQAQLNELQAQLSQKEQAAEHYKLQMEKAKTHYDAKKQQNQELQEQLRSLEQLQKENKELRAEAERLGHELQQAGLKTKEAEQTCRHLTAQVRSLEAQVAHADQQLRDLGK
modifications: LD555 dye on the SNAP tag
notes: NuMA (nuclear mitotic apparatus protein), human, a.a; 1-1699; also called NuMA N-terminal construct; source: SF9 insect cells (baculovirus), purified (IgG Sepharose, TEV elution, Superose 6 SEC); not shown: His6, N-terminal, cleaved; ZZ, N-terminal, cleaved; SNAP, C-terminal, kept
B3: NuMA 1-505 (domain or fragment, human, UniProt Q14980 1-505, looked up)
chain: MTLHATRGAALLSWVNSLHVADPVEAVLQLQDCSIFIKIIDRIHGTEEGQQILKQPVSERLDFVCSFLQKNRKHPSSPECLVSAQKVLEGSELELAKMTMLLLYHSTMSSKSPRDWEQFEYKIQAELAVILKFVLDHEDGLNLNEDLENFLQKAPVPSTCSSTFPEELSPPSHQAKREIRFLELQKVASSSSGNNFLSGSPASPMGDILQTPQFQMRRLKKQLADERSNRDELELELAENRKLLTEKDAQIAMMQQRIDRLALLNEKQAASPLEPKELEELRDKNESLTMRLHETLKQCQDLKTEKSQMDRKINQLSEENGDLSFKLREFASHLQQLQDALNELTEEHSKATQEWLEKQAQLEKELSAALQDKKCLEEKNEILQGKLSQLEEHLSQLQDNPPQEKGEVLGDVLQLETLKQEAATLAANNTQLQARVEMLETERGQQEAKLLAERGHFEEEKQQLSSLITDLQSSISNLSQAKEELEQASQAHGARLTAQVASLTS
modifications: LD555 dye on the SNAP tag
notes: NuMA (nuclear mitotic apparatus protein), human, a.a; The methods say 'C-terminal SNAP or mNG'; also called NuMA N-terminal construct; source: SF9 insect cells (baculovirus), purified (IgG Sepharose, TEV elution, Superose 6 SEC); not shown: His6, N-terminal, cleaved; ZZ, N-terminal, cleaved; SNAP, C-terminal, kept
B4: NuMA MTBD2 (domain or fragment, human, UniProt Q14980 2002-2115, looked up)
chain: ESKKATSCFPRPMTPRDRHEGRKQSTTEAQKKAAPASTKQADRRQSMAFSILNTPKKLGNSLLRRGASKKALSKASPNTRSGTRRSPRIATTTASAATAAAIGATPRAKGKAKH
notes: NuMA, human, a.a; 2002-2115; source: SF9 insect cells (baculovirus), purified (IgG Sepharose, TEV elution, Superdex 200 SEC); not shown: His6, N-terminal, cleaved; ZZ, N-terminal, cleaved; MBP, N-terminal, cleaved; mNG, C-terminal, kept
B5: TPR domain of LGN (a.a. 1-409) (domain or fragment, human, UniProt P81274 1-409, looked up)
chain: MEENLISMREDHSFHVRYRMEASCLELALEGERLCKSGDCRAGVSFFEAAVQVGTEDLKTLSAIYSQLGNAYFYLHDYAKALEYHHHDLTLARTIGDQLGEAKASGNLGNTLKVLGNFDEAIVCCQRHLDISRELNDKVGEARALYNLGNVYHAKGKSFGCPGPQDVGEFPEEVRDALQAAVDFYEENLSLVTALGDRAAQGRAFGNLGNTHYLLGNFRDAVIAHEQRLLIAKEFGDKAAERRAYSNLGNAYIFLGEFETASEYYKKTLLLARQLKDRAVEAQSCYSLGNTYTLLQDYEKAIDYHLKHLAIAQELNDRIGEGRACWSLGNAYTALGNHDQAMHFAEKHLEISREVGDKSGELTARLNLSDLQMVLGLSYSTNNSIMSENTEIDSSLNGVRPKLGRRHSM
modifications: LD655 dye on the SNAP tag (unlabeled LGN in some assays)
notes: LGN, human, N-terminal TPR domain a.a; 1-409; cloned from pTK47_mCherry-LGN-Hardened; The methods say 'C-terminal SNAP or mNG'; the LD655 labelling implies SNAP; also called LGN TPR; source: SF9 insect cells (baculovirus), purified (IgG Sepharose, TEV elution, Resource-Q ion exchange); not shown: His6, N-terminal, cleaved; ZZ, N-terminal, cleaved; SNAP, C-terminal, kept
B6: NuMA 1-705 (domain or fragment, human, UniProt Q14980 1-705, looked up)
chain: MTLHATRGAALLSWVNSLHVADPVEAVLQLQDCSIFIKIIDRIHGTEEGQQILKQPVSERLDFVCSFLQKNRKHPSSPECLVSAQKVLEGSELELAKMTMLLLYHSTMSSKSPRDWEQFEYKIQAELAVILKFVLDHEDGLNLNEDLENFLQKAPVPSTCSSTFPEELSPPSHQAKREIRFLELQKVASSSSGNNFLSGSPASPMGDILQTPQFQMRRLKKQLADERSNRDELELELAENRKLLTEKDAQIAMMQQRIDRLALLNEKQAASPLEPKELEELRDKNESLTMRLHETLKQCQDLKTEKSQMDRKINQLSEENGDLSFKLREFASHLQQLQDALNELTEEHSKATQEWLEKQAQLEKELSAALQDKKCLEEKNEILQGKLSQLEEHLSQLQDNPPQEKGEVLGDVLQLETLKQEAATLAANNTQLQARVEMLETERGQQEAKLLAERGHFEEEKQQLSSLITDLQSSISNLSQAKEELEQASQAHGARLTAQVASLTSELTTLNATIQQQDQELAGLKQQAKEKQAQLAQTLQQQEQASQGLRHQVEQLSSSLKQKEQQLKEVAEKQEATRQDHAQQLATAAEEREASLRERDAALKQLEALEKEKAAKLEILQQQLQVANEARDSAQTSVTQAQREKAELSRKVEELQACVETARQEQHEAQAQVAELELQLRSEQQKATEKERVAQEKDQLQEQLQ
modifications: LD555 dye on the SNAP tag
notes: NuMA (nuclear mitotic apparatus protein), human, a.a; Construct used for the cryo-EM structure of the DDN complex; also called NuMA N-terminal construct; source: SF9 insect cells (baculovirus), purified (IgG Sepharose, TEV elution, Superose 6 SEC); not shown: His6, N-terminal, cleaved; ZZ, N-terminal, cleaved; SNAP, C-terminal, kept

Experiments:
[1] = target: microtubules (pig brain tubulin) (pig, UniProt P02550 1-451; Q767L7 1-444, Cy3 or Cy5 and biotin labels on a fraction of the tubulin | Cy3 or Cy5 and biotin labels on a fraction of the tubulin); assay: TIRF imaging of fluorescent protein on surface-immobilised microtubules; Cy3/biotin taxol-stabilised MTs immobilised by streptavidin; serial dilutions of mNG-fused NuMA constructs in MBC buffer (30 mM HEPES pH 7.4, 5 mM MgSO4, 1 mM EGTA, 100 mM KAc, casein, pluronic, methylcellulose); apparent Kd from a fit to a binding isotherm; settings: both partners purified
[2] = target: the molecule itself; assay: mass photometry; single protein diluted to 5-20 nM in 50 mM HEPES pH 7.4, 150 mM NaCl, 1 mM EGTA, 10% glycerol; TwoMP mass photometer
NuMA C = target: B1; assay: mass photometry; NuMA C and LGN mixed in equimolar (20 nM) concentrations; mass photometry buffer; settings: both partners purified

Binder | Kd [1] [nM] | stoichiometry N [2] | other results
B1 | 390 | – | –
B2 | – | 2 | –
B3 | – | 2 | –
B4 | 28 | – | –
B5 | – | – | stoichiometry N (NuMA C): 3 LGN per 3 NuMA C
B6 | – | 2 | –
